Results as given in publication PMC9595545, “Nonamer dependent RAG cleavage at CpGs can explain mechanism of chromosomal translocations associated to lymphoid cancers”.

Legend:
[1] = target: T1, RAG1 nonamer binding domain (NBD) (UniProt P15919 389-456); assay: BLI; RAG EMSA: 22.5 mM MOPS-KOH pH 7.0, 20% DMSO, 2.2 mM DTT, 50 mM K-glutamate, 2% glycerol, 100 ng/ml BSA, 2 h, 25 C; NBD EMSA as in earlier work; BLI: SAX sensors, NBD 0.36-2.22 nM, 1:1 fit, buffer not stated; details: protein: recombinant, tags: His (pET28a, Ni-NTA), chain copies: 2, biotin (BLI)
T1 sequence: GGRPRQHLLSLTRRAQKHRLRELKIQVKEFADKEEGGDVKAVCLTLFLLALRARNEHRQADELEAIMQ

[2] = target: T1, RAG1 nonamer binding domain (NBD); assay: EMSA; RAG EMSA: 22.5 mM MOPS-KOH pH 7.0, 20% DMSO, 2.2 mM DTT, 50 mM K-glutamate, 2% glycerol, 100 ng/ml BSA, 2 h, 25 C; NBD EMSA as in earlier work; BLI: SAX sensors, NBD 0.36-2.22 nM, 1:1 fit, buffer not stated; details: protein: recombinant, tags: His (pET28a, Ni-NTA), chain copies: 2, T/G mismatch

B1: KI (AP66/AP67) (dsDNA)
DNA 1: GAAAAAAGTGGCTCCCTGCCCAAGTATCCCTGTAAAACAAAAACCAAAAG
DNA 2: CTTTTGGTTTTTGTTTTACAGGGATACTTGGGCGGGGAGCCACTTTTTTC
Kd ([1]; label: 5'-32P on AP66 (EMSA), T/G mismatch): 0.36 nM

B2: FI (HK5/HK6) (dsDNA)
DNA 1: GGCCCTGCTTGACTGTGTCACAACCCCATCCAGTGGCCCTGAACTTGG
DNA 2: CCAAGTTCAGGGCCACTGGATGGGGTTGTGACGCAGTCAAGCAGGGCC
Kd ([1]; label: 5'-32P on HK5 (EMSA), T/G mismatch): 0.69 nM

B3: MTCII (NM88/NM89) (dsDNA)
DNA 1: TGCCATTGGCGTGAATGAGGGGAAGCCCCTCCTGACAGCTGGATGGTAGGACAAAGCCCTCTA
DNA 2: TAGAGGGCTTTGTCCTACCATCCAGCTGTCAGGAGGGGCTTCCCCTCGTTCACGCCAATGGCA
binding result ([2]; label: 5'-32P on NM88): binds

B4: 12RSS (AKN1/AKN2) (dsDNA)
DNA 1: GATCAGCTGATAGCTACCACAGTGCTACAGACTGGAACAAAAACCCTGCT
DNA 2: TAGCAGGGTTTTTGTTCCAGTCTGTAGCACTGTGGTAGCTATCAGCTGAT
Kd ([1]; label: 5'-32P on AKN1 (EMSA)): 0.7 nM

B5: MTCIV (NM92/NM93) (dsDNA)
DNA 1: GGAGGGGCTTCCCCTTGTTCACGCCAATGGCAGCGCCAGGTGTTCAGGGAGCTCTTGCGTTCAAACCACGA
DNA 2: TCGTGGTTTGAACGCAAGAGCTCCCTGAACACCTGGCGCTGCCATTGGCGTGAACGAGGGGAAGCCCCTCC
binding result ([2]; label: 5'-32P on NM92): binds

B6: MTCI (NM50/NM51) (dsDNA)
DNA 1: TTCAGGGAGCTCTTGTGTTCAAACCACGAAGAAGACGCAGTTTAATCTCA
DNA 2: TGAGATTAAACTGCGTCTTCTTCGTGGTTTGAACGCAAGAGCTCCCTGAA
binding result ([2]; label: 5'-32P on NM50): binds

B7: MTCIII (NM90/NM91) (dsDNA)
DNA 1: TCACGCCAATGGCAGTGCCAGGTGTTCAGGGAGCTCTTGCGTTCAAACCACGA
DNA 2: TCGTGGTTTGAACGCAAGAGCTCCCTGAACACCTGGCGCTGCCATTGGCGTGA
binding result ([2]; label: 5'-32P on NM90): binds
